Reference: the supplement of paper PMC9112550, “Optimization of the antimicrobial peptide Bac7 by deep mutational scanning” (BMC Biology, 2022)

The sequences below were run on Escherichia coli TOP10 (assay: shrunken log2 fold change of peptide-encoding DNA abundance (4.5 h post-induction vs induction); higher = less antimicrobial activity (less host growth inhibition)). Conditions: time post-induction: 4.5 h; library: site-saturation at positions 5, 18, 19, 20.
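Also: peptides expressed intracellularly from a pBAD plasmid library in pooled LB shake-flask culture, induced with 0.3% L-arabinose, DNA abundance read by NGS, three biological replicates, DESeq2 with apeglm shrinkage.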

| Sequence | shrunken log2 fold change |
| --- | --- |
| RRIRERPPRLPRPRPRPDDSPRP | -0.435 |
| RRIRGRPPRLPRPRPRPHCMPRP | -0.207 |
| RRIRLRPPRLPRPRPRPWHQPRP | 0.0225 |
| RRIRPRPPRLPRPRPRPEMAPRP | 0.0664 |
| RRIRLRPPRLPRPRPRPQVWPRP | 0.000105 |
| RRIRPRPPRLPRPRPRPGDRPRP | 0.0494 |
| RRIRSRPPRLPRPRPRPNLEPRP | -0.144 |
| RRIRERPPRLPRPRPRPCITPRP | -0.395 |
| RRIRLRPPRLPRPRPRPYVTPRP | -0.169 |
| RRIRLRPPRLPRPRPRPKSAPRP | 0.139 |
| RRIRTRPPRLPRPRPRPCKIPRP | -0.03 |
| RRIRERPPRLPRPRPRPFRPPRP | -0.179 |
| RRIRDRPPRLPRPRPRPEFEPRP | 0.824 |
| RRIRVRPPRLPRPRPRPSGWPRP | 0.16 |
| RRIRMRPPRLPRPRPRPSDMPRP | 0.0637 |
| RRIRMRPPRLPRPRPRPDKWPRP | 0.934 |
| RRIRIRPPRLPRPRPRPFNGPRP | -0.211 |
| RRIRTRPPRLPRPRPRPTKCPRP | -0.173 |
| RRIRHRPPRLPRPRPRPHGHPRP | 0.219 |
| RRIRCRPPRLPRPRPRPMKLPRP | -0.0356 |
| RRIRKRPPRLPRPRPRPHHVPRP | -0.348 |
| RRIRARPPRLPRPRPRPRLYPRP | 0.501 |
| RRIRERPPRLPRPRPRPEIHPRP | -0.0198 |
| RRIRDRPPRLPRPRPRPTHKPRP | -0.0994 |
| RRIRRRPPRLPRPRPRPSEHPRP | 0.453 |

| Sequence | shrunken log2 fold change |
| --- | --- |
| RRIRMRPPRLPRPRPRPDEQPRP | 0.0522 |
| RRIRYRPPRLPRPRPRPIYLPRP | -0.0172 |
| RRIRFRPPRLPRPRPRPREQPRP | 0.204 |
| RRIRWRPPRLPRPRPRPEKIPRP | 2.76 |
| RRIRCRPPRLPRPRPRPRAKPRP | 0.26 |
| RRIRCRPPRLPRPRPRPGDWPRP | 0.377 |
| RRIRERPPRLPRPRPRPHICPRP | 0.0721 |
| RRIRTRPPRLPRPRPRPWVNPRP | -0.208 |
| RRIRVRPPRLPRPRPRPSERPRP | -0.0442 |
| RRIRIRPPRLPRPRPRPFWYPRP | 0.00745 |
| RRIRYRPPRLPRPRPRPPTCPRP | -0.163 |
| RRIRSRPPRLPRPRPRPGGPPRP | 0.415 |
| RRIRPRPPRLPRPRPRPATAPRP | 0.315 |
| RRIRTRPPRLPRPRPRPGPEPRP | 0.0888 |
| RRIRNRPPRLPRPRPRPVQLPRP | 0.176 |
| RRIRTRPPRLPRPRPRPLNEPRP | -0.0228 |
| RRIRMRPPRLPRPRPRPAGQPRP | -0.00902 |
| RRIRMRPPRLPRPRPRPEAKPRP | 2.72 |
| RRIRIRPPRLPRPRPRPWSSPRP | -0.1 |
| RRIRLRPPRLPRPRPRPWDDPRP | -0.208 |
| RRIRRRPPRLPRPRPRPQHSPRP | -0.0462 |
| RRIRWRPPRLPRPRPRPQLFPRP | 0.0645 |
| RRIRWRPPRLPRPRPRPSKQPRP | 0.143 |
| RRIRCRPPRLPRPRPRPTDSPRP | -0.118 |
| RRIRWRPPRLPRPRPRPHKEPRP | -0.0233 |

| Sequence | shrunken log2 fold change |
| --- | --- |
| RRIRVRPPRLPRPRPRPKDEPRP | -0.205 |
| RRIRDRPPRLPRPRPRPVCGPRP | 0.979 |
| RRIRDRPPRLPRPRPRPIGHPRP | 0.012 |
| RRIRRRPPRLPRPRPRPWEEPRP | 0.158 |
| RRIRCRPPRLPRPRPRPPQLPRP | 0.329 |
| RRIRYRPPRLPRPRPRPQITPRP | -0.918 |
| RRIRVRPPRLPRPRPRPRTAPRP | 0.287 |
| RRIRMRPPRLPRPRPRPHGVPRP | 0.023 |
| RRIRPRPPRLPRPRPRPKDVPRP | -0.115 |
| RRIRFRPPRLPRPRPRPNDRPRP | -0.108 |
| RRIRDRPPRLPRPRPRPNIWPRP | 0.306 |
| RRIRCRPPRLPRPRPRPQELPRP | -0.212 |
| RRIRMRPPRLPRPRPRPYSRPRP | -0.253 |
| RRIRSRPPRLPRPRPRPHYKPRP | -0.891 |
| RRIRVRPPRLPRPRPRPYHIPRP | -1.2 |
| RRIRTRPPRLPRPRPRPYWGPRP | -0.0337 |
| RRIRIRPPRLPRPRPRPSFAPRP | -0.24 |
| RRIRSRPPRLPRPRPRPKSSPRP | -0.176 |
| RRIRCRPPRLPRPRPRPVVEPRP | 0.0964 |
| RRIRERPPRLPRPRPRPFIWPRP | 0.0296 |
| RRIRQRPPRLPRPRPRPSVWPRP | 0.128 |
| RRIRWRPPRLPRPRPRPSRYPRP | -0.483 |
| RRIRQRPPRLPRPRPRPHMSPRP | -0.28 |
| RRIRVRPPRLPRPRPRPSGHPRP | -0.185 |
| RRIRHRPPRLPRPRPRPGTMPRP | -0.0455 |

| Sequence | shrunken log2 fold change |
| --- | --- |
| RRIRNRPPRLPRPRPRPLPSPRP | 1.86 |
| RRIRHRPPRLPRPRPRPMWVPRP | -0.015 |
| RRIRARPPRLPRPRPRPGNPPRP | 0.167 |
| RRIRIRPPRLPRPRPRPYNYPRP | -0.65 |
| RRIRLRPPRLPRPRPRPMHKPRP | -0.449 |
| RRIRSRPPRLPRPRPRPCFTPRP | -0.521 |
| RRIRQRPPRLPRPRPRPYCSPRP | -0.132 |
| RRIRERPPRLPRPRPRPLCAPRP | -0.0485 |
| RRIRQRPPRLPRPRPRPSRCPRP | -0.177 |
| RRIRDRPPRLPRPRPRPEMRPRP | 1.29 |
| RRIRHRPPRLPRPRPRPPAHPRP | 0.0763 |
| RRIRMRPPRLPRPRPRPKRIPRP | 0.609 |
| RRIRSRPPRLPRPRPRPMICPRP | -0.0898 |
| RRIRGRPPRLPRPRPRPFVSPRP | -0.166 |
| RRIRHRPPRLPRPRPRPKCHPRP | -0.201 |
| RRIRARPPRLPRPRPRPPCCPRP | 0.571 |
| RRIRCRPPRLPRPRPRPNPSPRP | 0.0638 |
| RRIRIRPPRLPRPRPRPKFMPRP | -0.321 |
| RRIRVRPPRLPRPRPRPLSTPRP | -0.0699 |
| RRIRFRPPRLPRPRPRPLARPRP | -0.0473 |
| RRIRMRPPRLPRPRPRPTAKPRP | 0.255 |
| RRIRERPPRLPRPRPRPDQIPRP | -0.084 |
| RRIRFRPPRLPRPRPRPSGIPRP | -0.287 |
| RRIRRRPPRLPRPRPRPCHHPRP | -0.0387 |
| RRIRIRPPRLPRPRPRPFDDPRP | 0.0183 |

| Sequence | shrunken log2 fold change |
| --- | --- |
| RRIRPRPPRLPRPRPRPSPRPRP | 0.633 |
| RRIRPRPPRLPRPRPRPSFLPRP | -0.271 |
| RRIRIRPPRLPRPRPRPNNMPRP | -0.959 |
| RRIRSRPPRLPRPRPRPNYQPRP | -0.199 |
| RRIRGRPPRLPRPRPRPQREPRP | 0.225 |
| RRIRRRPPRLPRPRPRPFFTPRP | 0.501 |
| RRIRSRPPRLPRPRPRPYTDPRP | -1.11 |
| RRIRERPPRLPRPRPRPLPNPRP | -0.658 |
| RRIRVRPPRLPRPRPRPCIFPRP | -0.0604 |
| RRIRPRPPRLPRPRPRPFVLPRP | -0.352 |
| RRIRTRPPRLPRPRPRPNAHPRP | -0.102 |
| RRIRGRPPRLPRPRPRPGNWPRP | 0.541 |
| RRIRKRPPRLPRPRPRPKLWPRP | 0.656 |
| RRIRARPPRLPRPRPRPSHDPRP | 0.225 |
| RRIRCRPPRLPRPRPRPDELPRP | -0.044 |
| RRIRKRPPRLPRPRPRPSSHPRP | -0.163 |
| RRIRLRPPRLPRPRPRPHCFPRP | -0.0782 |
| RRIRCRPPRLPRPRPRPEKRPRP | -0.123 |
| RRIRLRPPRLPRPRPRPVYRPRP | -0.548 |
| RRIRQRPPRLPRPRPRPYENPRP | 0.00377 |
| RRIRERPPRLPRPRPRPQQMPRP | -0.237 |
| RRIRCRPPRLPRPRPRPYASPRP | -0.0843 |
| RRIRERPPRLPRPRPRPTKWPRP | 0.155 |
| RRIRTRPPRLPRPRPRPQDLPRP | -0.0848 |
| RRIRSRPPRLPRPRPRPPRPPRP | 0.684 |

| Sequence | shrunken log2 fold change |
| --- | --- |
| RRIRVRPPRLPRPRPRPCCLPRP | -0.241 |
| RRIRPRPPRLPRPRPRPSIKPRP | -0.33 |
| RRIRMRPPRLPRPRPRPCQRPRP | 0.0132 |
| RRIRMRPPRLPRPRPRPMKSPRP | 0.0897 |
| RRIRGRPPRLPRPRPRPRCRPRP | 0.957 |
| RRIRIRPPRLPRPRPRPVMHPRP | 0.152 |
| RRIRMRPPRLPRPRPRPCTEPRP | -0.0649 |
| RRIRMRPPRLPRPRPRPDRPPRP | 0.107 |
| RRIRCRPPRLPRPRPRPFERPRP | -0.0613 |
| RRIRPRPPRLPRPRPRPMYEPRP | -0.527 |
| RRIRERPPRLPRPRPRPLPFPRP | -0.688 |
| RRIRGRPPRLPRPRPRPYVLPRP | -0.114 |
| RRIRRRPPRLPRPRPRPNPQPRP | 0.631 |
| RRIRQRPPRLPRPRPRPWGVPRP | 0.122 |
| RRIRYRPPRLPRPRPRPFGKPRP | -0.0625 |
| RRIRPRPPRLPRPRPRPCIWPRP | -0.109 |
| RRIRLRPPRLPRPRPRPKIMPRP | -0.314 |
| RRIRDRPPRLPRPRPRPFDAPRP | -0.13 |
| RRIRDRPPRLPRPRPRPVRPPRP | 1.07 |
| RRIRYRPPRLPRPRPRPMFCPRP | -0.297 |
| RRIRRRPPRLPRPRPRPKCMPRP | -0.172 |
| RRIRNRPPRLPRPRPRPNFGPRP | -0.0224 |
| RRIRLRPPRLPRPRPRPADLPRP | 0.0231 |
| RRIRFRPPRLPRPRPRPSAHPRP | -0.352 |
| RRIRCRPPRLPRPRPRPKVHPRP | -0.0287 |
